Data reported in publication PMC7987009 (bioRxiv, 2021).

B1: Nb20 (VHH)
VHH: QVQLVESGGGLVQAGGSLRLSCAVSGAGAHRVGWFRRAPGKEREFVAAIGASGGMTNYLDSVKGRFTISRDNAKNTIYLQMNSLKPQDTAVYYCAARDIETAEYIYWGQGTQVTVSS
B2: Nb34 (VHH)
VHH: DVQLVESGGGLVQAGGSLRLSCAASGFTFSNYVMYWGRQAPGKGREWVSGIDSDGSDTAYASSVKGRFTISRDNAKNTLYLQMNNLKPEDTALYYCVKSKDPYGSPWTRSEFDDYWGQGTQVTVSS
B3: Nb17 (VHH)
VHH: HVQLVESGGGLVQAGGSLRLSCAASGSIFSSNAMSWYRQAPGKQRELVASITSGGNADYADSVKGRFTISRDKNTVYPEMSSLKPADTAVYYCHAVGQEASAYAPRAYWGQGTQVTVSS
B4: Nb105 (VHH)
VHH: HVQLVESGGGLVQAGGSLRLSCAVSGRTFSTYGMAWFRQAPGKERDFVATITRSGETTLYADSVKGRFTISRDNAKNTVYLQMNSLKIEDTAVYYCAVRRDSSWGYSRDLFEYDYWGQGTQVTVSS

Experiments:
[1] = biological target: SARS-CoV-2 spike receptor-binding domain (RBD), wild type (SARS-CoV-2, Wuhan-Hu-1 (wild type), UniProt P0DTC2); experiment: ELISA
[2] = biological target: SARS-CoV-2 spike HexaPro (S), prefusion-stabilized trimer (SARS-CoV-2, Wuhan-Hu-1, HexaPro design, stabilised); experiment: cell-based or functional assay

| Binder | binding result [1] | IC50 of neutralisation of the virus in vitro [2] |
| --- | --- | --- |
| B1 | binds |  |
| B2 | binds |  |
| B3 |  | ~0.025 µg/mL |
| B4 | binds |  |
